Measured values as given in PMC7327521 (Journal of Molecular Biology, 2020).
Square brackets hold non-standard residues; d marks the D form. Ends that are not written are not given here. pY = N[C@@H](Cc1ccc(OP(=O)(O)O)cc1)C(=O)O

Assays:
Experiment in all cases: fluorescence polarisation
Spt6-tSH2 K1434A = biological target: T1, Spt6-tSH2 K1434A (C. glabrata, UniProt Q6FLB1 1250-1444, K1434A)
T1 sequence (looked up): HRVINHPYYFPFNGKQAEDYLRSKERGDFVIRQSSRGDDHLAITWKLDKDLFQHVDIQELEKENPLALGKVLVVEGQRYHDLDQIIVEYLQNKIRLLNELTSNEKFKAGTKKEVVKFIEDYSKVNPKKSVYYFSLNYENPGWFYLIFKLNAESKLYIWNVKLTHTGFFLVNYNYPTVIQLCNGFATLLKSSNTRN

Spt6-tSH2 R1281A = biological target: T2, Spt6-tSH2 R1281A (C. glabrata, UniProt Q6FLB1 1250-1444, R1281A)
T2 sequence (looked up): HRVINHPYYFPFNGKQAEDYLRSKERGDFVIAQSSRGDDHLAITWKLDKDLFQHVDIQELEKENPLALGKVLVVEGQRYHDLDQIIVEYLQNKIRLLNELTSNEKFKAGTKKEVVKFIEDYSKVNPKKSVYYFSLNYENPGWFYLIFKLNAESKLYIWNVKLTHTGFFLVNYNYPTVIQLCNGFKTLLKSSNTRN

Spt6-tSH2 R1281A/R1285A = biological target: T3, Spt6-tSH2 R1281A/R1285A (C. glabrata, UniProt Q6FLB1 1250-1444, R1281A | R1285A)
T3 sequence (looked up): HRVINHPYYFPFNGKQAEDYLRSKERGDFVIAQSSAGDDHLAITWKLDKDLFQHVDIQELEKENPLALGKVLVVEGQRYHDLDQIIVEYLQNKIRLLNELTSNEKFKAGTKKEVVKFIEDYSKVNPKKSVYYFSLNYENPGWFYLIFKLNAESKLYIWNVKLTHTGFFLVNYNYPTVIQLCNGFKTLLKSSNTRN

Spt6-tSH2 K1354E = biological target: T4, Spt6-tSH2 K1354E (C. glabrata, UniProt Q6FLB1 1250-1444, K1354E)
T4 sequence (looked up): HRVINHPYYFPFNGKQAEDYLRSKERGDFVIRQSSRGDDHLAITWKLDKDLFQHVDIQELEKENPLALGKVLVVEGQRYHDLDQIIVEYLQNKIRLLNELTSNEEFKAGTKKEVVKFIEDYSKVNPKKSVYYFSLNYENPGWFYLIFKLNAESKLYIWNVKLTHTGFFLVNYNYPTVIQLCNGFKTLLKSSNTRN

Spt6-tSH2 R1281A/S1284A = biological target: T5, Spt6-tSH2 R1281A/S1284A (C. glabrata, UniProt Q6FLB1 1250-1444, R1281A | S1284A)
T5 sequence (looked up): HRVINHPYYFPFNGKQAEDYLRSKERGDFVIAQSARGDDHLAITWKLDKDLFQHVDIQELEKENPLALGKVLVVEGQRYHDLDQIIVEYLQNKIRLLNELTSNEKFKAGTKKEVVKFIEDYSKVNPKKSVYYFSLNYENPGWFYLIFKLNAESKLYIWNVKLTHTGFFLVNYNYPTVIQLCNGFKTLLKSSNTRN

Spt6-tSH2 R1281A/S1283A = biological target: T6, Spt6-tSH2 R1281A/S1283A (C. glabrata, UniProt Q6FLB1 1250-1444, R1281A | S1283A)
T6 sequence (looked up): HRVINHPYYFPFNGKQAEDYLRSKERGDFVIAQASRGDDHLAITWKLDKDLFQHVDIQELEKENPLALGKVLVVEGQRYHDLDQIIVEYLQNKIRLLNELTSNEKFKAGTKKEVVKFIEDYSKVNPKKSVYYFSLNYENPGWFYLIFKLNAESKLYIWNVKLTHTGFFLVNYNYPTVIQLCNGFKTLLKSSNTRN

Spt6-tSH2 S1283A = biological target: T7, Spt6-tSH2 S1283A (C. glabrata, UniProt Q6FLB1 1250-1444, S1283A)
T7 sequence (looked up): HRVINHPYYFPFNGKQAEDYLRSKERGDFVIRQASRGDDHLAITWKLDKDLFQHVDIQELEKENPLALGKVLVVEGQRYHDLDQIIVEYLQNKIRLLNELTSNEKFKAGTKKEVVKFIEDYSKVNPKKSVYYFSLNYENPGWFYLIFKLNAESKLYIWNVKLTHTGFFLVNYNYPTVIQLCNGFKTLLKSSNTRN

Spt6-tSH2 E1324A = biological target: T8, Spt6-tSH2 E1324A (C. glabrata, UniProt Q6FLB1 1250-1444, E1324A)
T8 sequence (looked up): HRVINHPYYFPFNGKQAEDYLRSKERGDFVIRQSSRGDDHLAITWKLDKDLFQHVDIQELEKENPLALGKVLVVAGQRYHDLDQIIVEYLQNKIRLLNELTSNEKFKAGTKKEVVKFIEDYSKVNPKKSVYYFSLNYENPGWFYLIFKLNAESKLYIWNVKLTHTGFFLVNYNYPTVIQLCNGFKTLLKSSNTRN

Spt6-tSH2 K1360A = biological target: T9, Spt6-tSH2 K1360A (C. glabrata, UniProt Q6FLB1 1250-1444, K1360A)
T9 sequence (looked up): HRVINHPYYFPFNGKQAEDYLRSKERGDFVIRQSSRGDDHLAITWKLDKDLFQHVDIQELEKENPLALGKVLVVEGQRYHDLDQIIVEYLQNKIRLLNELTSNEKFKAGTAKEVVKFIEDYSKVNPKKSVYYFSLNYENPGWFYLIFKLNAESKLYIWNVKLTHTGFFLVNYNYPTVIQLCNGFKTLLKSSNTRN

{5,6‑FAM}-PS[pY]SPTSPS[pY]SPTSPS [(pY1-CTD)2, FAM-labelled tyrosine-phosphorylated CTD diheptad]
Kd (Spt6-tSH2 K1434A): 24 µM | Kd (Spt6-tSH2 R1281A): 17.6 µM | Kd (Spt6-tSH2 R1281A/R1285A): 11.6 µM | Kd (Spt6-tSH2 K1354E): 16.3 µM | Kd (Spt6-tSH2 R1281A/S1284A): 11.4 µM | Kd (Spt6-tSH2 R1281A/S1283A): 35.5 µM | Kd (Spt6-tSH2 S1283A): 5.4 µM | Kd (Spt6-tSH2 E1324A): 1.4 µM | Kd (Spt6-tSH2 K1360A): 12.4 µM
